# Source: US12534534 (F STAR BETA, dated 2026)
# Positions count from the first letter of the chain named. Names and notes keep the numbering of the source.
# T1: cCD137-mFc-Avi (cynomolgus, Homodimer through the mouse Fc (one chain given). In the biotinylated version one biotin sits on the Avi-tag lysine of each monomer.)
# T1 construct: dimer; biotinylated version used on streptavidin plates; also called cyno CD137-mFc-Avi; cyno CD137-mFc
# T1 chain: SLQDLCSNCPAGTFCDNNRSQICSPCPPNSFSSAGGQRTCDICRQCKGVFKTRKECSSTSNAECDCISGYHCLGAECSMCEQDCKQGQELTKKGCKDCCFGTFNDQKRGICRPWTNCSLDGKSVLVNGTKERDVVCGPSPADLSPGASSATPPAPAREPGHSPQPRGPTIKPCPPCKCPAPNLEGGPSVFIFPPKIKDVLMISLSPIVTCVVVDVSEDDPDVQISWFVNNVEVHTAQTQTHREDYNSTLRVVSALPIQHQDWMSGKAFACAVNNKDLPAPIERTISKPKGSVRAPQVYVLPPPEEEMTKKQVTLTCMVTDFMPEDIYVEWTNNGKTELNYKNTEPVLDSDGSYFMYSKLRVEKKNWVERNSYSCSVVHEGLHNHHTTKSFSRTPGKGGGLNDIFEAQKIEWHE
# B1: FS20-22-49AA/FS30-10-3 (bispecific antibody, human IgG1, kappa, L234A L235A, V domains shown)
# VH: EVQLLESGGGLVQPGGSLRLSCAASGFTFSSYDMSWVRQAPGKGLEWVSDIDPTGSKTDYADSVKGRFTISRDNSKNTLYLQMNSLRAEDTAVYYCARDLNVYGFDYWGQGTLVTVSS
# VL: EIVLTQSPGTLSLSPGERATLSCRASQSVSSSYLAWYQQKPGQAPRLLIYGASSRATGIPDRFSGSGSGTDFTLTISRLEPEDFAVYYCQQSYSYPVTFGQGTKVEIKR
# notes: M97 (Kabat) to N against FS30-10; also called FS30-10-3 in mAb^2 format
# B2: FS20-22-49AA/FS30-10-16 (bispecific antibody, human IgG1, kappa, L234A L235A, V domains shown)
# VH: B1 VH with N101L
# VL: B1 VL
# notes: M97 (Kabat) to L against FS30-10; also called FS30-10-16 in mAb^2 format
# B3: FS20-22-49AA/FS30-10-12 (bispecific antibody, human IgG1, kappa, L234A L235A, V domains shown)
# VH: B1 VH with N101T
# VL: B1 VL
# notes: M97 (Kabat) to T against FS30-10; also called FS30-10-12 in mAb^2 format
# B4: FS20-22-49AA/FS30-5-37 (bispecific antibody, human IgG1, kappa, L234A L235A, V domains shown)
# VH: EVQLLESGGGLVQPGGSLRLNCAASGFTFSSYAMSWVRQAPGKGLEWVSAISGSGGSTYYADSVKGRFTISRDNSKNTLYLQMNSLRAEDTAVYYCARSYDKYWGSSIYSGLDYWGQGTLVTVSS
# VL: EIVLTQSPGTLSLSPGERATLSCRASQSVSSSYLAWYQQKPGQAPRLLIYGASSRATGIPDRFSGSGSGTDFTLTISRLEPEDFAVYYCQQYYSYYPVTFGQGTKVEIKR
# notes: M100D to I and M100H to L against FS30-5; also called FS30-5-37 in mAb^2 format
# B5: FS20-22-49AA/FS30-35-14 (bispecific antibody, human IgG1, kappa, L234A L235A, V domains shown)
# VH: EVQLLESGGGLVQPGGSLRLSCAASGFTFSAYNIHWVRQAPGKGLEWVSDISPYGGATNYADSVKGRFTISRDNSKNTLYLQMNSLRAEDTAVYYCARNLYELSAYSYGADYWGQGTLVTVSS
# VL: B4 VL with S94Y, Y95S, Y96S, V98I
# notes: M100F (Kabat) to A against FS30-35; also called FS30-35-14 in mAb^2 format
# Biological target: human CD137 on DO11.10-hCD137 cells (human, UniProt Q07011 24-255)
# Experiment: cell-based or functional assay
"EC50 (nM), mIL-2 release, DO11.10-hCD137 T cell assay, crosslinked (mean of n = 2)","Emax (mIL-2 pg/ml), DO11.10-hCD137 T cell assay, crosslinked",Binder
6.1 nM,17000 pg/mL,B1
4.7 nM,16300 pg/mL,B2
9.5 nM,17200 pg/mL,B3
13.4 nM,18100 pg/mL,B4
5.1 nM,19800 pg/mL,B5

# Biological target: T2, hCD137-mFc-Avi (human, UniProt Q07011 24-186)
# T2 construct: dimer; also called human CD137-mFc-Avi; human CD137-mFc
# Experiment: SPR (Biacore 3000), against the positive control G1/MOR7480.1
# Method: (§1) Briefly, 25 µg/ml anti-human IgG (Fc) antibody (GE Healthcare, Human Antibody Capture Kit, BR100839) was coated on flow cells 1, 2, 3 and 4 of a Biacore sensor chip CM5 (GE Healthcare, BR100012) for 3 minutes at 5 µl/min, achieving a final response of approximately 4300 RU. The mAb² clones, diluted in HBS-EP buffer (GE Healthcare, BR100188) at 0.5 µg/ml, were injected individually on flows cell 2, 3 and 4 at 30 µl/min to achieve a response of approximately 80 RU. […] Regeneration was achieved by injecting 3 M magnesium chloride (GE Healthcare, Human Antibody Capture Kit, BR100839) for 30 seconds at a rate of 30 µl/min. […] These slightly less stringent conditions were used to assess whether this molecule could bind to cyno CD137-mFc. Subtracted data (flow cell 2-flow cell 1, flow cell 3-flow cell 1, or flow cell 4-flow cell 1) were analysed using BIAevaluation 3.2 Software (GE Healthcare) to identify binding using the model 1:1 binding with mass transfer, with refractive index (RI) constant 0.
row,fold higher binding affinity than G1/MOR7480.1,Binder
1,~3 fold,B1
2,~3 fold,B2

# Biological target: T2, hCD137-mFc-Avi
# Experiment: SPR (Biacore 3000), mAb^2 captured by anti-human Fc, dimeric CD137-mFc as analyte, 1:1 model with mass transfer
# Method: as §1
row,Kd,Binder
1,0.19 nM,B1
2,0.17 nM,B2
3,6.31 nM,B3
4,3.45 nM,B4
5,0.6 nM,B5

# Biological target: T1, cCD137-mFc-Avi
# Experiment: as above
# Method: as §1
row,Kd,Binder
1,0.22 nM,B1
2,0.15 nM,B2
3,4.63 nM,B3
4,3 nM,B4
5,0.67 nM,B5

# Biological target: T2, hCD137-mFc-Avi
# Experiment: cell-based, 100 nM hCD137-mFc-Avi with 200 nM antibody, competitor human CD137L on DO11.10 cells, GMFI normalised to G1/11D4 = 0 and G1/MOR7480.1 = 100; mean of n=2
# Method: The cells were washed once in PBS and 100 μl/well of secondary antibody (anti-mouse Fc-488 antibody, Jackson Immuno Research, 115-546-008) diluted 1:1000 in PBS containing 2% BSA was then added and incubated for 30 mins at 4° C. in the dark. The cells were washed once with PBS and resuspended in 100 μl of PBS containing DAPI (Biotium, 40043) at 1 μg/ml. The cells were analysed using a Canto II flow cytometer (BD Bioscience). Dead cells were excluded and the fluorescence in the FITC channel (488 nm/530/30) was measured. […] The data was analysed using a one-way ANOVA test and Tukey's multiple comparisons test using GraphPad Prism.
row,% CD137 ligand blocking activity,Binder
1,65%,B1
2,76%,B2
3,46%,B3
4,105%,B4
